Data on two substances can be found in patent US20030108916.

Among the targets are GST-Xchk1(306-352) S344A (UniProt Q6DE87); GST-Xchk1(306-352) T314A (UniProt Q6DE87); GST-Xchk1(347-374) S356A (UniProt Q6DE87); GST-Xchk1(347-374) S365A (UniProt Q6DE87).
The target in series [1] is GST-Xchk1(306-352) S344A+T314A (UniProt Q6DE87).
In series [2] the target is GST-Xchk1(306-352), wild type peptide fragment (UniProt Q6DE87).
Series [3] deals with GST-Xchk1(347-374) S365A+S356A (UniProt Q6DE87).
The target of series [4] is GST-Xchk1(347-374), wildtype peptide fragment (UniProt Q6DE87).
Series [5] addresses GST-Xchk1-N135A (kinase inactive Xchk1 mutant, bacterially expressed) (UniProt Q6DE87).
The target of series [6] is GST-Xchk1-N135A-4AQ (bacterially expressed) (UniProt Q6DE87).
For series [7], the system named is PHAS-I (model substrate protein).

Xenopus laevis ATR (Xatr), endogenous protein in Xenopus egg extracts, sequence (chain, as listed by the source): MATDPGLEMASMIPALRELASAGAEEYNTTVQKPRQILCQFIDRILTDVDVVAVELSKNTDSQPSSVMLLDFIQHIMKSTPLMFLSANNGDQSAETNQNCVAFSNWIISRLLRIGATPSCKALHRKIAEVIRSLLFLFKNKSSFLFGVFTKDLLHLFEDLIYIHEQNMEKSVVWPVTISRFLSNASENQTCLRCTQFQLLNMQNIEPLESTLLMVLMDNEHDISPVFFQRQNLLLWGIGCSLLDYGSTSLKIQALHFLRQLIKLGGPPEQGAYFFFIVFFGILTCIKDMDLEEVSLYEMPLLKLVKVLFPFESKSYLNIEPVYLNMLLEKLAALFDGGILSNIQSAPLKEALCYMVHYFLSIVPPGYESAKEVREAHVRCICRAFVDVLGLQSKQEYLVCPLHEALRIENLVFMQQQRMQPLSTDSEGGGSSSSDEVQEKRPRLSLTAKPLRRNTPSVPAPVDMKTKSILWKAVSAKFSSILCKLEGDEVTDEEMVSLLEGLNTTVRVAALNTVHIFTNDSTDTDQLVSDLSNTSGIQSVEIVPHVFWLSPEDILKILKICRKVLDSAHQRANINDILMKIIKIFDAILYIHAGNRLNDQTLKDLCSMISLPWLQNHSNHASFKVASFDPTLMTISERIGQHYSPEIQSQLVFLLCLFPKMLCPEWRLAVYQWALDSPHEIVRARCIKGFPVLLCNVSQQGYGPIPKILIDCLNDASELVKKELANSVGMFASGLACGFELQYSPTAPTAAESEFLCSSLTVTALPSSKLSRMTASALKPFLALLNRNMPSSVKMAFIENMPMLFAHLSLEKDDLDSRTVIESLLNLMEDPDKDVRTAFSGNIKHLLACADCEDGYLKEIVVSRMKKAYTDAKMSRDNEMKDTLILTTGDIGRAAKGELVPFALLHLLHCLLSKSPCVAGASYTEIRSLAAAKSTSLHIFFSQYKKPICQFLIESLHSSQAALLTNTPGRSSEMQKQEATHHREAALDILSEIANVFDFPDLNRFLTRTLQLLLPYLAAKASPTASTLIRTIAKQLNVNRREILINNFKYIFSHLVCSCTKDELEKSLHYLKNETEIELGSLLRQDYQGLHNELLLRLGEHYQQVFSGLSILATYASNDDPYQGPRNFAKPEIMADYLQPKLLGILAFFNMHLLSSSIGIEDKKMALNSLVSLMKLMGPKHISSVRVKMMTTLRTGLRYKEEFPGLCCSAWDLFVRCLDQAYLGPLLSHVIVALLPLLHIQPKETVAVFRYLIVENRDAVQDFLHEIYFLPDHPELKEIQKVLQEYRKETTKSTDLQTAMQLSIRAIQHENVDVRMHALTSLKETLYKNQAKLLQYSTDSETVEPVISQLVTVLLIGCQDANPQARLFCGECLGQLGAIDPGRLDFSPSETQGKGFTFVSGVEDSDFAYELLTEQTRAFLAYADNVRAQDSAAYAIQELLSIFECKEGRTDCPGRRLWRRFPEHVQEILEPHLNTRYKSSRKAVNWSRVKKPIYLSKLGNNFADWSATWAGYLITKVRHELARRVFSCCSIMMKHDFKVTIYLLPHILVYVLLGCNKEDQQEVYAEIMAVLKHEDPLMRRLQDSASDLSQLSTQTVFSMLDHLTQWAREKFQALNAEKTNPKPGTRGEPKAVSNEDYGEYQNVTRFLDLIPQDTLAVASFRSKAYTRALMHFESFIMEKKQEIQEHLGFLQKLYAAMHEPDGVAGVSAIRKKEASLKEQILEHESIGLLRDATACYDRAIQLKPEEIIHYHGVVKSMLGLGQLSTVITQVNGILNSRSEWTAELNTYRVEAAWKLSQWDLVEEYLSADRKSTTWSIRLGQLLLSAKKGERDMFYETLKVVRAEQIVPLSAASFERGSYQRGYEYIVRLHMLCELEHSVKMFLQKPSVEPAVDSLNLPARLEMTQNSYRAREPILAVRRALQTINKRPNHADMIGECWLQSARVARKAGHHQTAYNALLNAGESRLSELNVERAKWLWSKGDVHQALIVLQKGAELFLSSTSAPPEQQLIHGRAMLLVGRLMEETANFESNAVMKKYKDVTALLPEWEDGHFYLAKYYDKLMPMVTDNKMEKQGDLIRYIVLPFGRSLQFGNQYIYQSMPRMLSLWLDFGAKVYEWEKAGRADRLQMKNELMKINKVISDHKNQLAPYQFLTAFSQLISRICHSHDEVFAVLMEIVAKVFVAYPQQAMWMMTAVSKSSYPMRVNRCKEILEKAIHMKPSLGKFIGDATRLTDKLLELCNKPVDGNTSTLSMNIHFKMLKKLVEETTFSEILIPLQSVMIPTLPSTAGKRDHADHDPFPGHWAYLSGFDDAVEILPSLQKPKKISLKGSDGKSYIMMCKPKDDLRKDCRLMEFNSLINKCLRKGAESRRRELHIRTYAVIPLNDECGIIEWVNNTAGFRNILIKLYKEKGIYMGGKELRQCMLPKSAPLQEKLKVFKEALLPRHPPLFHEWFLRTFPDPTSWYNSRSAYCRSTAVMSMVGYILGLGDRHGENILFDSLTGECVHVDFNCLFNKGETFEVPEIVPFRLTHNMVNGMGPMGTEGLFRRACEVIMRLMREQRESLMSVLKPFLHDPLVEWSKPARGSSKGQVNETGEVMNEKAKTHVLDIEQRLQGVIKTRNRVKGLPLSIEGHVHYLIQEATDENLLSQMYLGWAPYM
GST-Xchk1(306-352), wild type peptide fragment, sequence (Q6DE87 306-352): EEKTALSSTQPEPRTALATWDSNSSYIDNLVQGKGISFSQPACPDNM
GST-Xchk1(347-374), wildtype peptide fragment, sequence (Q6DE87 347-374): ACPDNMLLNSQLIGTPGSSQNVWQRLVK
GST-Xchk1(306-352) T314A, sequence (Q6DE87 whole entry T314A, looked up, tested part not stated): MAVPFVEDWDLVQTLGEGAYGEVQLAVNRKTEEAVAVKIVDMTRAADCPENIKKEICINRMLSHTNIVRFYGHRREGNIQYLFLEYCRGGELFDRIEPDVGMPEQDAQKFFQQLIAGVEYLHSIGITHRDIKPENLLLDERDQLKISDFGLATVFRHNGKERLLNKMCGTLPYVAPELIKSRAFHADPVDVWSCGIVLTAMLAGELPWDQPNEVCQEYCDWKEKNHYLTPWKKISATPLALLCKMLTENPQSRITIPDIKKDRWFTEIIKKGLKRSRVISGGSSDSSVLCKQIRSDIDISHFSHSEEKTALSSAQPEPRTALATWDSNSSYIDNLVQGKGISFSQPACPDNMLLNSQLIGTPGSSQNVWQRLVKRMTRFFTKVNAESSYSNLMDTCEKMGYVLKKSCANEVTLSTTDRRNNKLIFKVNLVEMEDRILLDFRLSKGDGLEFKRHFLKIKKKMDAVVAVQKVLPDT
GST-Xchk1(306-352) S344A, sequence (Q6DE87 whole entry S344A, looked up, tested part not stated): as the sequence (Q6DE87 whole entry T314A, looked up, tested part not stated) above, with A314T, S344A counted along it
GST-Xchk1(347-374) S356A, sequence (Q6DE87 whole entry S356A, looked up, tested part not stated): as the sequence (Q6DE87 whole entry T314A, looked up, tested part not stated) above, with A314T, S356A counted along it
GST-Xchk1(306-352) S344A+T314A, sequence (Q6DE87 whole entry T314A/S344A, looked up, the tested form may be a part): as the sequence (Q6DE87 whole entry T314A, looked up, tested part not stated) above, with S344A counted along it
GST-Xchk1(347-374) S365A+S356A, sequence (Q6DE87 whole entry S356A/S365A, looked up, the tested form may be a part): as the sequence (Q6DE87 whole entry T314A, looked up, tested part not stated) above, with A314T, S356A, S365A counted along it
GST-Xchk1(347-374) S365A, sequence (Q6DE87 whole entry S365A, looked up, tested part not stated): as the sequence (Q6DE87 whole entry T314A, looked up, tested part not stated) above, with A314T, S365A counted along it
GST-Xchk1-N135A (kinase inactive Xchk1 mutant, bacterially expressed), sequence (Q6DE87 whole entry N135A, looked up): as the sequence (Q6DE87 whole entry T314A, looked up, tested part not stated) above, with N135A, A314T counted along it
GST-Xchk1-N135A-4AQ (bacterially expressed), sequence (Q6DE87 whole entry N135A, looked up): as the sequence (Q6DE87 whole entry T314A, looked up, tested part not stated) above, with N135A, A314T counted along it

As for “Xenopus laevis ATR (Xatr), endogenous protein in Xenopus egg extracts”, the “in vitro phosphorylation of Xchk1 peptides” value is “Xatr phosphorylated Xchk1 when a single SQ or TQ site is mutated although the level of phosphorylation is significantly reduced in comparison to that observed with wildtype peptide” in the series with GST-Xchk1(306-352) S344A; “mutation of both sites within each peptide (S365A+S356A or S344A+T314A) abolished phosphorylation by Xatr (lanes 4 and 8)” in series [1]; “Xatr phosphorylated Xchk1 when a single SQ or TQ site is mutated although the level of phosphorylation is significantly reduced in comparison to that observed with wildtype peptide” with GST-Xchk1(306-352) T314A; “Xatr phosphorylated both of the wildtype peptide fragments (lanes 1 and 5-top panel)” in series [2]; “Xatr phosphorylated Xchk1 when a single SQ or TQ site is mutated although the level of phosphorylation is significantly reduced in comparison to that observed with wildtype peptide” with GST-Xchk1(347-374) S356A; “Xatr phosphorylated Xchk1 when a single SQ or TQ site is mutated although the level of phosphorylation is significantly reduced in comparison to that observed with wildtype peptide” with GST-Xchk1(347-374) S365A. Moreover, the “in vitro phosphorylation of Xchk1 peptides” value in series [3] was “mutation of both sites within each peptide (S365A+S356A or S344A+T314A) abolished phosphorylation by Xatr (lanes 4 and 8)”; in series [4] it was “Xatr phosphorylated both of the wildtype peptide fragments (lanes 1 and 5-top panel)”. In addition, the “in vitro phosphorylation (32P-ATP, autoradiography)” value in [5] is recorded as “Xatr phosphorylates Xchk1 in vitro (compare lane 5 to lane 6)”; in series [6], “the resulting mutant (GST-Xchk1-N135A-4AQ) was not phosphorylated by Xatr (lane 4)”. For the same substance, the “phosphorylation of PHAS-I (in vitro kinase assay, autoradiography)” value in [7] is recorded as “these immunoprecipitates phosphorylated a model substrate protein (PHAS-I) in vitro”.

As to “Wildtype human Flag-tagged ATR isolated from 293T cells”, the “in vitro phosphorylation of Xchk1 peptides” value with GST-Xchk1(306-352) S344A is “human ATR phosphorylated each of the single point mutant Chk1 substrates (S365A, S356A, S344A and T314A); the level of phosphorylation of the single mutant forms of Xchk1 by human ATR is also reduced”; in series [1], “human ATR does not phosphorylate the double mutant XChk1 substrates (S365A+S356A or S344A+T314A-as shown in lanes 4 and 12)”; with GST-Xchk1(306-352) T314A, “human ATR phosphorylated each of the single point mutant Chk1 substrates (S365A, S356A, S344A and T314A); the level of phosphorylation of the single mutant forms of Xchk1 by human ATR is also reduced”; in series [2], “Wildtype human ATR phosphorylated the wildtype XChk1 peptides Xchk1 (306-352) and Xchk1(347-374)”; in the series with GST-Xchk1(347-374) S356A it was “human ATR phosphorylated each of the single point mutant Chk1 substrates (S365A, S356A, S344A and T314A); the level of phosphorylation of the single mutant forms of Xchk1 by human ATR is also reduced”; with GST-Xchk1(347-374) S365A, “human ATR phosphorylated each of the single point mutant Chk1 substrates (S365A, S356A, S344A and T314A); the level of phosphorylation of the single mutant forms of Xchk1 by human ATR is also reduced”. The “in vitro phosphorylation of Xchk1 peptides” value in series [3] is “human ATR does not phosphorylate the double mutant XChk1 substrates (S365A+S356A or S344A+T314A-as shown in lanes 4 and 12)”; in series [4], “Wildtype human ATR phosphorylated the wildtype XChk1 peptides Xchk1 (306-352) and Xchk1(347-374)”.
